In patent publication US20210188958A1 (JILIN UNIVERSITY, published 2021):

What was measured:
Test in all cases: indirect ELISA, peptide coated at 0.25 ug/well
synthetic peptide W10 = target: T1, synthetic peptide W10 (Trichinella spiralis)
T1 construct: also called Ts-WN10-W10
T1 peptide: IFESDKKKSSGTYLL

synthetic peptide W13 = target: T2, synthetic peptide W13 (Trichinella spiralis)
T2 construct: also called Ts-WN10-W13
T2 peptide: DVYKNCSGSGDSKVC

synthetic peptide W14 = target: T3, synthetic peptide W14 (Trichinella spiralis)
T3 construct: also called Ts-WN10-W14
T3 peptide: VEYKYFDPTKSTVEC

synthetic peptide W2 = target: T4, synthetic peptide W2 (Trichinella spiralis)
T4 construct: also called Ts-WN10-W2
T4 peptide: VNCQGEGRRKHCTME

synthetic peptide W3 = target: T5, synthetic peptide W3 (Trichinella spiralis)
T5 construct: also called Ts-WN10-W3
T5 peptide: TMEYTHRNPSKATVS

synthetic peptide W8 = target: T6, synthetic peptide W8 (Trichinella spiralis)
T6 construct: also called Ts-WN10-W8
T6 peptide: CTLEYRHRTPSTATV

synthetic peptide W6 = target: T7, synthetic peptide W6 (Trichinella spiralis)
T7 construct: also called Ts-WN10-W6
T7 peptide: ALFSSDSKEQSGVLH

synthetic peptide W12 = target: T8, synthetic peptide W12 (Trichinella spiralis)
T8 construct: also called Ts-WN10-W12
T8 peptide: EKAFNSYEDVYKNCS

synthetic peptide W5 = target: T9, synthetic peptide W5 (Trichinella spiralis)
T9 construct: also called Ts-WN10-W5
T9 peptide: QILGETTHYGRNDP

synthetic peptide W11 = target: T10, synthetic peptide W11 (Trichinella spiralis)
T10 construct: also called Ts-WN10-W11
T10 peptide: KETECGIKEKAFNSY

synthetic peptide W1 = target: T11, synthetic peptide W1 (Trichinella spiralis)
T11 construct: also called Ts-WN10-W1
T11 peptide: ALFSSDLKQESGVFH

synthetic peptide W7 = target: T12, synthetic peptide W7 (Trichinella spiralis)
T12 construct: also called Ts-WN10-W7
T12 peptide: HKLVELEESSTMGIL

synthetic peptide W4 = target: T13, synthetic peptide W4 (Trichinella spiralis)
T13 construct: also called Ts-WN10-W4
T13 peptide: TVSKCFEEVEEPLII

synthetic peptide W9 = target: T14, synthetic peptide W9 (Trichinella spiralis)
T14 construct: also called Ts-WN10-W9
T14 peptide: EEQVVSQRSQMLGGT

B1: WN10-1H9-Ab (antibody, V domains shown)
VH: QVQLQQPGSELVRPGASVKLSCKASGYTFTSYWMHWVKQRPGQGLEWIGNISPGSGNTNYDEKFKTKATLTVDTSSSTAYMQLSSLTSEDSAVYYCTRHGTVDYWGQGTTVTVSS
VL: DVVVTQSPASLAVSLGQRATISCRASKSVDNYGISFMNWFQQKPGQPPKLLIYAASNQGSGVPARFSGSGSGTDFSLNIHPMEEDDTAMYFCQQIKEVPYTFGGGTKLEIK
notes: Mouse monoclonal antibody; It was used as hybridoma supernatant in the ELISAs; also called 1H9 monoclonal antibody; monoclonal antibody generated by hybridoma cell line WN10-1H9 (CGMCC No. 18316)
Synthetic peptide W10
  OD 450 nm: 0.161 OD 450 nm
Synthetic peptide W13
  OD 450 nm: 0.166 OD 450 nm
Synthetic peptide W14
  OD 450 nm: 0.158 OD 450 nm
Synthetic peptide W2
  OD 450 nm: 1.15 OD 450 nm
Synthetic peptide W3
  OD 450 nm: 0.149 OD 450 nm
Synthetic peptide W8
  OD 450 nm: 0.152 OD 450 nm
Synthetic peptide W6
  OD 450 nm: 0.127 OD 450 nm
Synthetic peptide W12
  OD 450 nm: 0.16 OD 450 nm
Synthetic peptide W5
  OD 450 nm: 0.286 OD 450 nm
Synthetic peptide W11
  OD 450 nm: 0.147 OD 450 nm
Synthetic peptide W1
  OD 450 nm: 0.0733 OD 450 nm
Synthetic peptide W7
  OD 450 nm: 0.162 OD 450 nm
Synthetic peptide W4
  OD 450 nm: 0.171 OD 450 nm
Synthetic peptide W9
  OD 450 nm: 0.144 OD 450 nm
